According to the supplement of paper PMC7877785:
± gives the uncertainty stated by the source.

Assay: self-splicing fitness, log relative to wild type (ln ratio); higher = more splicing; Tetrahymena group I intron in knt gene, E. coli kanamycin selection, DiMSum; sequences stand for … in CUCUCU…GGAGGGAAAAGUUAUCAGGCAUGCACCUGGUAGCUAGUCUUUAAACCAAUAGAUUGCAUCGGUUUAAAAGGCAAGACCGUCAAAUUGCGGGAAAGGGGUCAACAGCCGUUCAGUACCAAGUCUCAGGGGAAACUUUGAGAUGGCCUUGCAAAGGGUAUGGUAAUAAGCUGACGGACAUGGUCCUAACCACGCAGCCAAGUCCUAAGUCAACAGAUCUUCUGUUGAUAUGGAUGCAGUUCACAGACUAAAUGUCGGUCGGGGAAGAUGUAUUCUUCUCAUAAGAUAUAGUCGGACCUCUCCUUAAUGGGAGCUAGCGGAUGAAGUGAUGCAACACUGGAGCCGCUGGGAACUAAUUUGUAUGCGAAAGUAUAUUGAUUAGUUUUGGAGUACUCGUGGUCG
Procedure, shortened: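 Six replicate transformations of E. coli BL21(DE3) with a pET-22b(+) library were grown overnight at 37°C or 30°C. The library randomised all eight P1ex-region intron nucleotides, the intron lying in the knt kanamycin-resistance gene, and plates were LB agar with or without 25 μg/mL kanamycin plus 100 μg/mL carbenicillin, 50 μM IPTG and 0.2% rhamnose. Pooled colonies were amplicon-sequenced on an Illumina HiSeq 2500, and fitness is the DiMSum error-weighted combination of wild-type-normalised replicate fold changes, kanamycin versus none.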

| Sequence | self-splicing fitness (ln) (30 °C) | self-splicing fitness (ln) (37 °C) |
| --- | --- | --- |
| AGCUAGCAAUAUUACGCUGA | -2.63 ± 0.18 | -0.955 ± 0.09 |
| ACCAAGCAAUAUUACGUUUU | -3.36 ± 0.1 | -2.29 ± 0.096 |
| CAUAAGCAAUAUUACGCUCG | -0.821 ± 0.11 | -0.252 ± 0.12 |
| UCACAGCAAUAUUACGUAGG | -1.07 ± 0.055 | -1.05 ± 0.082 |
| AGUUAGCAAUAUUACGUGGU | -3.34 ± 0.15 | -3.35 ± 0.23 |
| CAUUAGCAAUAUUACGGAUC | -1.46 ± 0.12 | -1.6 ± 0.16 |
| AGCGAGCAAUAUUACGAUGG | -4.61 ± 0.42 | -2.68 ± 0.24 |
| AUGGAGCAAUAUUACGACAG | -2.74 ± 0.28 | -0.415 ± 0.28 |
| UCCGAGCAAUAUUACGGACU | -3.56 ± 0.21 | -2.02 ± 0.14 |
| UGGCAGCAAUAUUACGGGCA | -0.0254 ± 0.11 | -0.0149 ± 0.12 |
| UGCCAGCAAUAUUACGGGUC | -3.53 ± 0.23 | -2.34 ± 0.18 |
| GCUCAGCAAUAUUACGAAAC | -0.549 ± 0.14 | -0.851 ± 0.17 |
| CGUGAGCAAUAUUACGGACA | -1.29 ± 0.16 | -0.944 ± 0.19 |
| UUUCAGCAAUAUUACGGAAC | -1.24 ± 0.22 |  |
| AGGGAGCAAUAUUACGGUCG | -2.2 ± 0.31 | -2.83 ± 0.48 |
| CUCUAGCAAUAUUACGGGGG | -3.07 ± 0.3 | -2.38 ± 0.26 |
| CAACAGCAAUAUUACGGAUU | -2.92 ± 0.13 | -1.94 ± 0.14 |
| UGGCAGCAAUAUUACGAGUU | -4.06 ± 0.3 | -2.48 ± 0.24 |
| UGGAAGCAAUAUUACGACCG | -0.874 ± 0.13 | -0.818 ± 0.17 |
| CGCUAGCAAUAUUACGCACC | -1.98 ± 0.18 | -1 ± 0.23 |
| AGGAAGCAAUAUUACGGCAC | -1.55 ± 0.14 | -0.99 ± 0.14 |
| ACACAGCAAUAUUACGCAUC | -3.23 ± 0.21 | -0.58 ± 0.094 |
| CUUGAGCAAUAUUACGCGUG | -2.84 ± 0.18 | -0.143 ± 0.11 |
| AAAGAGCAAUAUUACGACAA | -2.27 ± 0.23 | -2.95 ± 0.38 |
| CUAUAGCAAUAUUACGGUAA | -3.01 ± 0.23 | -1.69 ± 0.18 |
| AGCAAGCAAUAUUACGGUGU | -2.65 ± 0.13 | -0.608 ± 0.1 |
| CAGCAGCAAUAUUACGAUCC | -2.11 ± 0.22 | -2.73 ± 0.4 |

| Sequence | self-splicing fitness (ln) (30 °C) | self-splicing fitness (ln) (37 °C) |
| --- | --- | --- |
| GGGAAGCAAUAUUACGAAAG |  | -2.48 ± 0.41 |
| CACUAGCAAUAUUACGUUGU | -4.22 ± 0.14 | -2.08 ± 0.12 |
| CAUUAGCAAUAUUACGCGAC | -3.58 ± 0.48 |  |
| AAGUAGCAAUAUUACGUCGC | -2.54 ± 0.25 | -1.8 ± 0.23 |
| CGAAAGCAAUAUUACGGGUG | 0.0165 ± 0.043 | 0.189 ± 0.063 |
| GAAGAGCAAUAUUACGGGUU | -3.11 ± 0.2 | -2.22 ± 0.2 |
| UAUUAGCAAUAUUACGGUAU | -3.6 ± 0.29 | -2.26 ± 0.31 |
| UACAAGCAAUAUUACGAUUC | -3.23 ± 0.13 | -2.04 ± 0.16 |
| CCACAGCAAUAUUACGAGAU | -3.37 ± 0.14 | -1.65 ± 0.14 |
| AUACAGCAAUAUUACGGGCU | -2.77 ± 0.11 | -1.29 ± 0.12 |
| ACAAAGCAAUAUUACGCAGC | -2.63 ± 0.17 | -0.879 ± 0.16 |
| CAUGAGCAAUAUUACGUGGA | -3.96 ± 0.47 | -3 ± 0.38 |
| CCUCAGCAAUAUUACGGAUC |  | -1.41 ± 0.22 |
| GAGAAGCAAUAUUACGAUGC | -1.06 ± 0.15 | -0.435 ± 0.21 |
| GUCCAGCAAUAUUACGUGGA | -3.34 ± 0.21 | -1.91 ± 0.19 |
| UCACAGCAAUAUUACGGUCA | -0.0483 ± 0.085 | 0.318 ± 0.099 |
| GCCCAGCAAUAUUACGUGCU | -3.14 ± 0.16 | -2.88 ± 0.21 |
| GCCAAGCAAUAUUACGCCAC |  | -1.25 ± 0.27 |
| CAGAAGCAAUAUUACGCGAA |  | -1.94 ± 0.23 |
| AACGAGCAAUAUUACGAUUG | -4.09 ± 0.23 | -1.56 ± 0.23 |
| GUGGAGCAAUAUUACGACUU | -2.79 ± 0.34 | -0.283 ± 0.24 |
| UUUCAGCAAUAUUACGGGAA | -1.96 ± 0.2 | -1.93 ± 0.21 |
| GGGCAGCAAUAUUACGACCG | -0.512 ± 0.14 | 0.369 ± 0.17 |
| CGGAAGCAAUAUUACGAUAG | -1.11 ± 0.082 | 0.166 ± 0.1 |
| UCGCAGCAAUAUUACGGCGU | -2.06 ± 0.16 | 0.251 ± 0.11 |
| CUUCAGCAAUAUUACGUAAC | -2.65 ± 0.32 | -2.27 ± 0.45 |
| UUAUAGCAAUAUUACGACGA | -0.378 ± 0.098 | 0.212 ± 0.1 |

| Sequence | self-splicing fitness (ln) (30 °C) | self-splicing fitness (ln) (37 °C) |
| --- | --- | --- |
| CCGCAGCAAUAUUACGAUCU | -3.81 ± 0.29 | -2.35 ± 0.26 |
| GUGUAGCAAUAUUACGAUUU | -1.98 ± 0.19 | 0.0419 ± 0.25 |
| GGUUAGCAAUAUUACGCUUU | -2.01 ± 0.13 | 0.0831 ± 0.14 |
| UUCGAGCAAUAUUACGAUCC | -2.6 ± 0.49 |  |
| UAGAAGCAAUAUUACGGAUU | -1.57 ± 0.11 | -1.37 ± 0.15 |
| CGCAAGCAAUAUUACGCAGC |  | -2.35 ± 0.27 |
| GUCUAGCAAUAUUACGUGCU | -3.08 ± 0.23 | -1.87 ± 0.39 |
| UGGAAGCAAUAUUACGGUGA | -1.41 ± 0.12 | -0.4 ± 0.13 |
| AACGAGCAAUAUUACGUUUA | -3.12 ± 0.2 | -2.64 ± 0.21 |
| UAUUAGCAAUAUUACGCUGC | -2.92 ± 0.27 | -2.59 ± 0.49 |
| CUUUAGCAAUAUUACGGGUG | -0.377 ± 0.072 | 0.108 ± 0.091 |
| UUUGAGCAAUAUUACGAAGA | -2.31 ± 0.44 | -1.55 ± 0.38 |
| UUUCAGCAAUAUUACGUAGG | -0.515 ± 0.068 | -0.741 ± 0.11 |
| AACGAGCAAUAUUACGCCUC | -2.71 ± 0.28 | -1.53 ± 0.17 |
| UGGGAGCAAUAUUACGGUUG | -2.07 ± 0.22 |  |
| UAAUAGCAAUAUUACGCAUU | -2.83 ± 0.21 | -2.15 ± 0.28 |
| GGACAGCAAUAUUACGGGAC | -1.56 ± 0.13 | -1.98 ± 0.19 |
| AUUUAGCAAUAUUACGGCUA | -0.795 ± 0.13 | 0.255 ± 0.12 |
| CGUAAGCAAUAUUACGACCA | -2.11 ± 0.35 | -0.83 ± 0.25 |
| CGAAAGCAAUAUUACGCCUU | -2.73 ± 0.44 | -1.11 ± 0.28 |
| UACUAGCAAUAUUACGAAAU |  | -3.34 ± 0.4 |
| GAGUAGCAAUAUUACGUAUC | -3.05 ± 0.14 | -0.698 ± 0.11 |
| UCUUAGCAAUAUUACGGGUC | -3.28 ± 0.32 | -2.68 ± 0.41 |
| AGAAAGCAAUAUUACGCCUU | -1.29 ± 0.12 | -1.69 ± 0.14 |
| UAAGAGCAAUAUUACGACGG | -3.85 ± 0.26 | -2.54 ± 0.21 |
